Laboratory results reported in paper PMC12412652 (Science Advances, 2025).

Key:
Details in all cases: both partners purified
αBAX1 = experiment: BLI; Octet RED96; biotinylated BCL-2 family proteins (25 nM) immobilised on streptavidin biosensors, designed protein in solution; 10 mM Hepes pH 7.4, 150 mM NaCl, 3 mM EDTA, 0.05% surfactant P20, 0.5% nonfat dry milk; titrations in triplicate, 1:1 binding model
[1] = target: T1, BAK-CDP02 (BAK-targeting computationally designed protein 02 of 11); experiment: as above
T1 construct: Cloned into pET29b; source: E. coli, purified (Ni-NTA, SEC)

MBP-BIM-BH3 = experiment: as above
αBAK2 = target: T2, αBAK2; experiment: as above
T2 construct: Form used for BLI and, as far as told, for the liposome and cytochrome c assays; source: E. coli, purified

αBAK1 = target: T3, αBAK1; experiment: as above
T3 construct: source: E. coli, purified

BCL-XL, biotinylated = BCL-XL, biotinylated (UniProt Q07817-1 1-233, biotin); experiment: BLI; Octet RED96; biotinylated BCL-2 proteins (25 nM) immobilised on streptavidin biosensors; 10 mM Hepes pH 7.4, 150 mM NaCl, 3 mM EDTA, 0.05% surfactant P20, 0.5% nonfat dry milk; multiple-concentration titrations, 1:1 binding model
BCL-2, biotinylated = BCL-2, biotinylated (UniProt P10415 1-239, biotin); experiment: as above
Chain of BCL-2, biotinylated (P10415 whole entry): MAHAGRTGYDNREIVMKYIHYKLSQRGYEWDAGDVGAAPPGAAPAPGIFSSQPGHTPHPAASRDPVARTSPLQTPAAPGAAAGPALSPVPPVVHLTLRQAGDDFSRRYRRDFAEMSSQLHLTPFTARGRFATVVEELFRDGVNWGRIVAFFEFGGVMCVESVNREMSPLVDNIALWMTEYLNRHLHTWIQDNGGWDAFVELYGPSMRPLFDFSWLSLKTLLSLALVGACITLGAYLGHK

Chain of BCL-XL, biotinylated (Q07817 whole entry): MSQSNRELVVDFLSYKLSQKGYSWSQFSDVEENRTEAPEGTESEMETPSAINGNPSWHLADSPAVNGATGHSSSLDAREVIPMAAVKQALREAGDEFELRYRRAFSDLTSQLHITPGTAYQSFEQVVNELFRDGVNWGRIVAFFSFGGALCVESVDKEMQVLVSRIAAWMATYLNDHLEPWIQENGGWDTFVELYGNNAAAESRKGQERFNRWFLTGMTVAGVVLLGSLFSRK

B1: BFL-1 (natural protein)
chain: MTDCEFGYIYRLAQDYLQCVLQIPQPGSGPSKTSRVLQNVAFSVQKEVEKNLKSCLDNVNVVSVDTARTLFNQVMEKEFEDGIINWGRIVTIFAFEGILIKKLLRQQIAPDVDTYKEISYFVAEFIMNNTGEWIRQNGGWENGFVKKFEPKSG
modifications: biotin
B1 showed a Kd (αBAX1) of 5 nM.

B2: MBP-BAK 16-186, biotinylated (Avi tag, 6-histidine tag) (domain or fragment)
chain: EPALPSASEEQVAQDTEEVFRSYVFYRHQQEQEAEGVAAPADPEMVTLPLQPSSTMGQVGRQLAIIGDDINRRYDSEFQTMLQHLQPTAENAYEYFTKIATSLFESGINWGRVVALLGFGYRLALHVYQHGLTGFLGQVTRFVVDFMLHHCIARWIAQRGGWVAALNLGNGLEGLNDIFEAQKIEWHEGSHHHHHH
modifications: biotin on the Avi tag (enzymatic, BirA)
B2 gave a Kd [1] of 60 nM, a Kd (MBP-BIM-BH3) of 4000 ± 2000 nM and a Kd (αBAK2) of 0.4 nM. It also gave a Kd (αBAK1) of 7 nM.

B3: MBP-BidBH3 (domain or fragment, UniProt P55957 1-195, looked up)
chain: MDCEVNNGSSLRDECITNLLVFGFLQSCSDNSFRRELDALGHELPVLAPQWEGYDELQTDGNRSSHSRLGRIEADSESQEDIIRNIARHLAQVGDSMDRSIPPGLVNGLALQLRNTSRSEEDRNRDLATALEQLLQAYPRDMEKEKTMLVLALLLAKKVASHTPSLLRDVFHTTVNFINQNLRTYVRSLARNGMD
notes: BH3 peptide of the BH3-only protein BID, fused to MBP
B3 was tested, and the Kd (BCL-XL, biotinylated) was 2.3 ± 0.4 nM and the Kd (BCL-2, biotinylated) was 47 ± 5 nM.
